What was measured:
[1] = target: human glypican-3 (GPC3) (human) (UniProt P51654); assay: cell-based or functional assay
[2] = target: human glypican-3 (GPC3) (human) (UniProt P51654); assay: flow cytometry on JHH-5 cells (GPC3-mid)
[3] = target: human glypican-3 (GPC3) (human) (UniProt P51654); assay: flow cytometry on JHH-7 cells (GPC3-high)
[4] = target: cynomolgus monkey glypican-3 (GPC3) (cynomolgus monkey); assay: flow cytometry on CHO-S cells transfected with cynomolgus GPC3
[5] = target: human glypican-3 (GPC3) (human) (UniProt P51654); assay: flow cytometry on JHH-7 cells; v21995 in PBS (not incubated in plasma), day 0
[6] = target: human glypican-3 (GPC3) (human) (UniProt P51654); assay: flow cytometry on CHO-S cells transfected with human GPC3
[7] = target: human GPC3 on cells (human) (UniProt P51654); assay: flow cytometry, JHH-7 cells; negative control

| JHH-5 Internalization (MFI) [1] [MFI] | JHH-5 Internalization (MFI), Day 0 (in PBS) [1] [MFI] | JHH-7 Internalization (MFI) [1] [MFI] | JHH-7 Internalization (MFI), Day 0 (in PBS) [1] [MFI] | Kd [2] [nM] | Kd [3] [nM] | Kd [4] [nM] | Bmax (MFI) [5] [MFI] | Kd [5] [nM] | Kd [6] [nM] | Kd [7] [nM] | Substance |
| --- | --- | --- | --- | --- | --- | --- | --- | --- | --- | --- | --- |
| 399 | 506 | 265 | 4 | > 150 | > 47 | > 150 | 309 | 37.7 | > 150 |  | palivizumab (anti-RSV antibody), v21995 |
|  |  |  |  |  |  |  |  |  |  | > 60 | v22277 (palivizumab) (antibody) |
